Measurements taken from patent publication US12178803B2, “CD47 blockade with PARP inhibition for disease treatment” (TRILLIUM THERAPEUTICS ULC, priority 2018, dated 2024).

Assay: Systemic toxicity by clinical parameter scoring in the xenograft study
Format: in vivo
Details: SIRPαFc added to niraparib and/or RT
Description: Niraparib (50 mg/kg) was administered 1 hour prior to RT, 5 times per week for 1 week. Mice were treated with whole abdomen radiotherapy (external beam radiation therapy) at a dose of 2 Gy for 2 fractions using an image-guided small animal irradiator (225 kVp, 13 mA). Treatment was initiated on day 7 following tumor inoculation. Treatment efficacy was assessed by bioluminescent imaging (BLI) and animal survival. Systemic toxicity was evaluated by clinical parameter scoring.

Question: Which “additional toxicity when combined with PARPi (niraparib) and/or RT” value does the source give for “SIRPαFc: CD47 blocking fusion protein: IgV domain of human SIRPα V2 fused to a human IgG Fc region; preferred SEQ ID NO:8” here?
Answer: without showing additional toxicity
